Tests used:
[1] = biological target: T1, human transferrin receptor 1 (human, UniProt P02786 89-760, limits assumed); assay: ELISA on human TfR1
T1 construct: also called hTfR1; huTfR1
Method: (§1) The binding activity of selected formats were tested against human TfR1, cyno TfR1, and human TfR2 in an ELISA assay.

[2] = biological target: T1, human transferrin receptor 1; assay: Carterra LSA SPR array, IgG captured on anti-IgG lawn, hTfR1 as analyte, 25 C, 1:1 Langmuir fit
Method: Selected anti-TfR1 antibodies were tested for their binding affinity to human TfR1 for measurement of Ka (association rate constant), Kd (dissociation rate constant), and KD (affinity). […] The binding experiment was performed on Carterra LSA at 25 C. An anti-mouse IgG and anti-human IgG antibody “lawn” was prepared on a HC30M chip by amine coupling. 59 IgGs (58 mouse mAbs and 1 human mAb) were captured on the chip. Dilution series of hTfR1, cyTfR1, and hTfR2 were injected to the chip for binding (starting from 1000 nM, 1:3 dilution, 8 concentrations).
Binding data were referenced by subtracting the responses from a buffer analyte injection and globally fitting to a 1:1 Langmuir binding model for estimate of Ka (association rate constant), Kd (dissociation rate constant), and KD (affinity) using the Carterra™ Kinetics software. 5-6 concentrations were used for curve fitting.
Target sequence in this assay (P02786 89-760 limits assumed): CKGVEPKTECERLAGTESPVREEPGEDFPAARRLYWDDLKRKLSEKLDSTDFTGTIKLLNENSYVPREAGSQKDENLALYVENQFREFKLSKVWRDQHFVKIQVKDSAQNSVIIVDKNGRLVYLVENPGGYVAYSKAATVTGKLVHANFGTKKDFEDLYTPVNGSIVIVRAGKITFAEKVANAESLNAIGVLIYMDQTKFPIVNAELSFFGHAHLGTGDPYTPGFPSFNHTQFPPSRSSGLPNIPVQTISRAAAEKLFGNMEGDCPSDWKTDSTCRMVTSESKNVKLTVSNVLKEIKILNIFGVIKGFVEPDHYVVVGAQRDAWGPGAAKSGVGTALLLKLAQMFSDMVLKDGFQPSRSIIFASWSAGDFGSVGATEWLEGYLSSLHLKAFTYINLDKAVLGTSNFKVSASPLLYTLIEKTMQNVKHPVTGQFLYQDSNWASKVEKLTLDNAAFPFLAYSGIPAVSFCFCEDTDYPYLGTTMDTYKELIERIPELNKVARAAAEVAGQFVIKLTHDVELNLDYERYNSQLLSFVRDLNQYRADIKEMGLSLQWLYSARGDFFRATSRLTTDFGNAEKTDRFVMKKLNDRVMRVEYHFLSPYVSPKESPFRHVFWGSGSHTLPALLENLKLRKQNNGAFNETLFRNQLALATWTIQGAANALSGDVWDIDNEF

[3] = biological target: T2, cynomolgus monkey transferrin receptor 1 (cynomolgus monkey (Macaca fascicularis), UniProt Q5RDH6 89-760 (Pongo abelii entry), limits assumed); assay: ELISA on cyno TfR1
T2 construct: also called cyTfR1; Cyno TfR1
T2 chain: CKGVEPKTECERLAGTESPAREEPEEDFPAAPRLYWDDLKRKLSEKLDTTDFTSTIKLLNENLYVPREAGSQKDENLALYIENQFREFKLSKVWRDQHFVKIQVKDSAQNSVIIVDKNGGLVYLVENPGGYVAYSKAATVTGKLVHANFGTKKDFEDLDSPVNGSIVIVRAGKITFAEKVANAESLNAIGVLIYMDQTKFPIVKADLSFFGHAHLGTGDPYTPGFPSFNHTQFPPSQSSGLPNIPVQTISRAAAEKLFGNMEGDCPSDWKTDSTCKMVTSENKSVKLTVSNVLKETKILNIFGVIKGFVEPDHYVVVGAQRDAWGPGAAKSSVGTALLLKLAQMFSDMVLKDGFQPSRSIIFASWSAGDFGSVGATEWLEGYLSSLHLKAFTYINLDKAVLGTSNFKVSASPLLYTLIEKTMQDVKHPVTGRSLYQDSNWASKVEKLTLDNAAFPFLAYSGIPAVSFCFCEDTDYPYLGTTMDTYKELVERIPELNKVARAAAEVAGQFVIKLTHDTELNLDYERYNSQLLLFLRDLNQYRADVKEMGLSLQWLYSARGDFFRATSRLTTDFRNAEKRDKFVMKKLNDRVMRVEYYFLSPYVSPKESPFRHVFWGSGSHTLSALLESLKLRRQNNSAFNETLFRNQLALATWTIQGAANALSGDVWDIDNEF
Method: as §1

[4] = biological target: T2, cynomolgus monkey transferrin receptor 1; assay: average KD, antibody alone; method not given
[5] = biological target: T1, human transferrin receptor 1; assay: average KD, antibody alone; method not given
Target sequence in this assay (P02786 89-760 limits assumed): as the sequence (P02786 89-760 limits assumed) above

B1: Anti-TfR antibody 15G11 (antibody, V domains shown)
VH: QVQLQQPGAELVKPGASVKLSCKASGYTFTSYWMHWVKQRPGQGLEWIGEINPTNGRTNYIEKFKSKATLTVDKSSSTAYMQLSSLTSEDSAVYYCARGTRAYHYWGQGTSVTVSS
VL: DIQMTQSPASLSVSVGETVTITCRASDNLYSNLAWYQQKQGKSPQLLVYDATNLADGVPSRFSGSGSGTQYSLKINSLQSEDFGTYYCQHFWGTPLTFGAGTKLELK
notes: Known control antibody; It was captured as an IgG on the Carterra chip; also called ctrl-15G11; 15G11 (control)
In the case of B1, the EC50 [1] is reported as 0.589 nM, the Kd [2] is reported as 0.283 nM and the EC50 [3] is reported as 1.08 nM. The Kd [4] was 1 nM and the Kd [5] was 0.8 nM.
